Test results taken from patent US20220144930A1.

Experiments:
[1] = molecular target: recombinant human VEGF165 protein (human) (UniProt P15692); experiment: cell-based or functional assay
[2] = molecular target: VEGF-165, VEGFC and VEGFD mixture; experiment: cell-based or functional assay

Chain of EYLEA (Fc fusion) (chain): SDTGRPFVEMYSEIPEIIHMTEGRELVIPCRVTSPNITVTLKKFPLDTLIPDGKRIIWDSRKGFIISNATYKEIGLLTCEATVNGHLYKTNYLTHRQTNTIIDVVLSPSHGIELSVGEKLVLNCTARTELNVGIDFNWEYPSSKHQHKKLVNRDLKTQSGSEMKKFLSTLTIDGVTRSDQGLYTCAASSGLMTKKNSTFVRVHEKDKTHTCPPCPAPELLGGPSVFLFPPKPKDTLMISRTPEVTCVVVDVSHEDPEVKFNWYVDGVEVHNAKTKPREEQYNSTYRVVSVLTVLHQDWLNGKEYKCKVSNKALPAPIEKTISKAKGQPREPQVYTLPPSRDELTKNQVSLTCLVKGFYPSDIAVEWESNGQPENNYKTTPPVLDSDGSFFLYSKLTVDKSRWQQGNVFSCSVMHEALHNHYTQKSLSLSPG

| EC50(nM), neutralizing VEGF165 at 10 ng/mL, HUVEC proliferation [1] | EC50(nM), neutralizing VEGF165 at 100 ng/mL, HUVEC proliferation [1] | EC50(nM), neutralizing VEGF165 at 1000 ng/mL, HUVEC proliferation [1] | maximum neutralization rate (%), VEGF165 at 10 ng/mL, HUVEC proliferation [1] | maximum neutralization rate (%), VEGF165 at 100 ng/mL, HUVEC proliferation [1] | maximum neutralization rate (%), VEGF165 at 1000 ng/mL, HUVEC proliferation [1] | EC50(nM), neutralizing VEGF165, VEGFC and VEGFD mixture, HUVEC proliferation [2] | Maximum neutralization rate Emax (%), VEGF165, VEGFC and VEGFD mixture, HUVEC proliferation [2] | Substance |
| --- | --- | --- | --- | --- | --- | --- | --- | --- |
| 0.16 nM | 2.9 nM | 40.2 nM | 101% | 98.7% | 80.2% |  |  | EYLEA (Fc fusion) |
|  |  |  |  |  |  | 0.77 nM | 58.5% | Avastin (bevacizumab) (antibody) |
